Reference: US20220211858A1, “TUBULAR SUPRAMOLECULAR POLYMERS” (priority 2019, published 2022)
Read-outs that look alike come from different tables or passages of the source.

Experiments:
[1] = Zeta potential measurement; type: physicochemical
Description: TT solutions of 200 μM in 1×-DPBS buffer (pH=7.4) were prepared by directly mixing identical volumes of a 400 μM aqueous TT solution and 2×-DPBS buffer (pH=7.4). In some embodiments, solutions at a concentration of 2 mM in PBS buffer (pH=7.4) were prepared and aged overnight prior to zeta potential measurement. TT solutions of 200 μM in 1×-DPBS buffer (pH=5.0) were prepared by mixing identical volumes of a 400 μM aqueous TT solution and 2×-DPBS buffer (pH=5.0), which was pretreated with 6 M HCl. The zeta potential measurements were performed on a Zetasizer Nano ZS90 (Malvern Instruments Ltd., UK). The prepared solutions were loaded in capillary cells and equilibrated for 2 min prior to measurement. The average values and their standard deviations are calculated from three replicate measurements. The zeta potential of the assembled structures was obtained by measuring the electrophoretic movement of the nanostructures under the applied electric field, where the movement velocity is determined by phase analysis light scattering. Variations of the zeta potential value over time were determined by measuring the solutions at different aging time points (1, 2, 4 and 7 days) and are plotted in FIG. 10.

[2] = CD measurement of SAPD stability in plasma/serum environments; type: physicochemical, rat; conditions: for change of CD absorptions versus aqueous solution: 200 μM in rat plasma, FBS, mice plasma, aged overnight
Description: CD measurement of SAPDs in physiological environments. Stock solutions of SAPDs were prepared at 2 mM and aged overnight. The solutions were diluted to 200 μM in 10% fetal bovine serum (FBS), 10% mice plasma and 10% rat plasma, aged overnight before CD measurement. To study the kinetic stability of the assembled SAPDs upon dilution, the stock solutions of SAPD 1 and 2 were diluted to 100 μM, 50 μM, 25 μM, 10 μM, and 5 μM in 10% rat plasma. The CD spectra were recorded at 5 min, 1 h, 4 h, and 12 h. All the CD spectra were recorded from 300 to 450 nm using a 1 mm path length quartz cell. The spectra were collected and normalized from ellipticity (mdeg) to molar ellipticity (deg·cm2·dmol^−1).
Stability of SAPDs in Protein Environments. The interactions of nanoparticles with serum proteins are known to impact the disassociation of supramolecular assemblies in biologically relevant environment. To assess the stability of assembled SAPDs in more complex biological media, we performed CD experiments to investigate their long-term stability in various serum environments. SAPDs solutions (2 mM) were diluted using rat plasma (FIG. 21C), fetal bovine serum (FBS), and mice plasma to yield a final concentration of 200 μM, which were then aged overnight before CD measurement was taken. […] We also performed experiments to assess their kinetic stability upon plasma dilution, mimicking the dissociation process of SPs after intravenous injection. Solutions of SAPD 1 and 2 (2 mM) were diluted to 100 μM, 50 μM, 25 μM, 10 μM, and 5 μM in rat plasma, and time-dependent CD spectra were recorded at 5 min, 1 h, 4 h, and 12 h. […] At 12 h, the decrease reached 22% and 33%, respectively.

[3] = Drug release and chemical stability of SAPDs in PBS with or without GSH; type: physicochemical; conditions: for prodrug degraded / conjugates remaining intact: 200 μM; for prodrug degraded: 37° C., 10 mM GSH, within 5 min; for remaining drugs / conjugates remaining intact: without GSH; for remaining drugs: 96 h; for conjugates remaining intact: 120 h
Description: Drug release and chemical stability studies of SAPDs. Drug release studies of four SAPDs were performed at a concentration of 200 μM in PBS buffer with or without the reducing agent glutathione (GSH). Briefly, 400 μM stock solutions of SAPDs in water were prepared and aged overnight. Stock solutions containing 2×PBS (20 mM) with or without 20 mM GSH were prepared 1 h before the experiment, and the pH was tuned to 7.4 with NaOH. The prodrug solutions were further diluted to 200 μM with 20 mM (2×) PBS buffer with or without GSH (20 mM) to give final solutions of 200 μM prodrug, 10 mM PBS and with or without 10 mM GSH. Three replicates of each SAPD were prepared with or without GSH and were incubated at 37° C. Samples with GSH were collected at 0 min, 5 min, 10 min, 15 min, 30 min, 1 h and 2 h, while samples without GSH were collected at 0 h, 6 h, 12 h, 24 h, 48 h, 72 h, 96 h and 120 h. To prevent further reaction after sample collection, the collected samples (50 μL each point) were acidified by adding 0.2 μL of 2M HCl, frozen with liquid nitrogen and stored at −30° C. The release profile was determined by analytical RP-HPLC using the following conditions: Varian Pursuit XRs C18 (5 μm, 150×4.6 mm); 362 nm detection wavelength; 1 mL/min flow rate; the gradient began at 15% to 85% acetonitrile containing 0.1% TFA by 15 min and back to initial gradient at 18 min. The calculated data points were plotted as a percentage of the total CPT concentration against time. Representative HPLC traces over time were also integrated for comparison.

HT-29 cells [4] = tested on: HT-29 cells
Excerpt: Antitumor efficacy study of SAPDs at the same dose on a HT-29 tumor model. […] When the averaged tumor size reached 75-95 mm^3, mice were randomly divided into six groups. […] The tumor volumes and body weights were monitored and recorded every two or three days. The tumor volume was estimated by measuring the length and width with calipers and using the equation “tumor volume=(length×width^2)/2”. Mice were euthanized once the tumor volume reached 1000 mm^3.

HT-29 cells [5] = assay: Antitumor efficacy of SAPDs at near MTD on a HT-29 tumor model; conditions: for mean tumor volume: day 28, SAPD 1 12 mg/kg, SAPD 2-4 36 mg/kg i.v. days 1, 5, 9, irinotecan 100 mg/kg i.p. days 1, 8, 15
Description: Antitumor efficacy study of SAPDs at near MTD on a HT-29 tumor model. HT-29 tumor model was established as described above. When the averaged tumor size reached 70-110 mm^3, mice were randomly divided into six groups (n=5 for each group). Four different SAPDs were all i.v. dosed at near or slightly lower than their estimated MTDs. […] The irinotecan (i.p. injection, 100 mg/kg at days 1, 8 and 15) and the PBS groups were used as controls. All other protocols were similar to those in the above-mentioned efficacy study.

[6] = SAPDs 10 mg/kg i.v. days 1, 5, 9, 13, irinotecan 100 mg/kg i.p. days 1, 8, 15
[7] = day 25, SAPDs 10 mg/kg (CPT equivalent) i.v. days 1, 5, 9, 13, irinotecan 100 mg/kg i.p. days 1, 8, 15

## CC[C@]1(OC(=O)OCCSSC[C@@H](NC(C)=O)C(=O)N[C@@H](CCCCNC(=O)[C@@H](CSSCCOC(=O)O[C@]2(CC)C(=O)OCc3c2cc2n(c3=O)Cc3cc4ccccc4nc3-2)NC(C)=O)C(=O)N[C@@H](CCCCNC(=O)CCOCCOCCOCCOCCOC)C(=O)N[C@@H](CCCCNC(=O)CCOCCOCCOCCOCCOC)C(=O)N[C@@H](CCCCNC(=O)CCOCCOCCOCCOCCOC)C(=O)N[C@@H](CCCCNC(=O)CCOCCOCCOCCOCCOC)C(=O)N[C@@H](CCCCNC(=O)CCOCCOCCOCCOCCOC)C(=O)N[C@@H](CCCCNC(=O)CCOCCOCCOCCOCCOC)C(N)=O)C(=O)OCc2c1cc1n(c2=O)Cc2cc3ccccc3nc2-1 [SAPD 3]
[1]; assembled SAPDs in PBS buffer
  ζ-Potential: −6.5 mV
[2]
  change of CD absorptions versus aqueous solution: some slight changes
[3]
  prodrug degraded: 93%
  remaining drugs: 63%
HT-29 cells [4]; mouse, in vivo
  mean tumor volume: 304 mm^3
  median survival: 42 days
HT-29 cells [5]
  mean tumor volume: 322 mm^3

## CC[C@]1(OC(=O)OCCSSC[C@@H](NC(C)=O)C(=O)N[C@@H](CCCCNC(=O)[C@@H](CSSCCOC(=O)O[C@]2(CC)C(=O)OCc3c2cc2n(c3=O)Cc3cc4ccccc4nc3-2)NC(C)=O)C(=O)N[C@@H](CCCCNC(=O)CCOCCOCCOCCOCCOC)C(=O)N[C@@H](CCCCNC(=O)CCOCCOCCOCCOCCOC)C(N)=O)C(=O)OCc2c1cc1n(c2=O)Cc2cc3ccccc3nc2-1 [TT 1]
[1]; 1×-DPBS buffer, pH 5.0, 200 μM
  ζ-Potential: −5 mV
[1]; 1×-DPBS buffer, pH 7.4, 200 μM
  ζ-Potential: −5 mV
[1]; assembled SAPDs in PBS buffer
  ζ-Potential: −6.5 mV
[2]; 5 μM in rat plasma, 5 min
  drop of CD absorption at 389 nm: 15%
[2]; 5 μM in rat plasma, 12 h
  drop of CD absorption at 389 nm: 33%
[2]; 10 μM in rat plasma, 5 min
  drop of CD absorption at 389 nm: 10%
[2]; 10 μM in rat plasma, 12 h
  drop of CD absorption at 389 nm: 22%
[2]
  change of CD absorptions versus aqueous solution: no noticeable changes
[2]; rat plasma, concentrations above 25 μM
  stability upon dilution over time: highly stable
[3]
  prodrug degraded: 8%
  conjugates remaining intact: 96%
  remaining drugs: 95%
HT-29 cells [4]; 10 mg/kg i.v.
  toxicity according to body weight change: most toxicity
HT-29 cells [4]; [6]
  median survival: 56 days
HT-29 cells [4]; [7]
  mean tumor volume: 60 mm^3
HT-29 cells [5]
  mean tumor volume: 172 mm^3

## CC[C@]1(OC(=O)OCCSSC[C@@H](NC(C)=O)C(=O)N[C@@H](CCCCNC(=O)[C@@H](CSSCCOC(=O)O[C@]2(CC)C(=O)OCc3c2cc2n(c3=O)Cc3cc4ccccc4nc3-2)NC(C)=O)C(=O)N[C@@H](CCCCNC(=O)CCOCCOCCOCCOCCOC)C(=O)N[C@@H](CCCCNC(=O)CCOCCOCCOCCOCCOC)C(=O)N[C@@H](CCCCNC(=O)CCOCCOCCOCCOCCOC)C(=O)N[C@@H](CCCCNC(=O)CCOCCOCCOCCOCCOC)C(N)=O)C(=O)OCc2c1cc1n(c2=O)Cc2cc3ccccc3nc2-1 [SAPD 2]
[1]; assembled SAPDs in PBS buffer
  ζ-Potential: −7.4 mV
[2]
  change of CD absorptions versus aqueous solution: no noticeable changes
[3]
  prodrug degraded: 45%
  conjugates remaining intact: 87%
  remaining drugs: 86%
HT-29 cells [4]; [6]
  median survival: 46 days
HT-29 cells [4]; [7]
  mean tumor volume: 255 mm^3
HT-29 cells [5]; 36 mg/kg i.v. days 1, 5, 9, n=5
  treatment related death: one treatement related death
HT-29 cells [5]
  mean tumor volume: 330 mm^3

## CC[C@]1(OC(=O)OCCSSC[C@@H](NC(C)=O)C(=O)N[C@@H](CCCCNC(=O)[C@@H](CSSCCOC(=O)O[C@]2(CC)C(=O)OCc3c2cc2n(c3=O)Cc3cc4ccccc4nc3-2)NC(C)=O)C(=O)N[C@@H](CCCCNC(=O)CCOCCOCCOCCOCCOC)C(=O)N[C@@H](CCCCNC(=O)CCOCCOCCOCCOCCOC)C(=O)N[C@@H](CCCCNC(=O)CCOCCOCCOCCOCCOC)C(=O)N[C@@H](CCCCNC(=O)CCOCCOCCOCCOCCOC)C(=O)N[C@@H](CCCCNC(=O)CCOCCOCCOCCOCCOC)C(=O)N[C@@H](CCCCNC(=O)CCOCCOCCOCCOCCOC)C(=O)N[C@@H](CCCCNC(=O)CCOCCOCCOCCOCCOC)C(=O)N[C@@H](CCCCNC(=O)CCOCCOCCOCCOCCOC)C(N)=O)C(=O)OCc2c1cc1n(c2=O)Cc2cc3ccccc3nc2-1 [SAPD 4]
[1]; assembled SAPDs in PBS buffer
  ζ-Potential: −5.9 mV
[2]
  change of CD absorptions versus aqueous solution: some slight changes
[3]
  prodrug degraded: 92%
  remaining drugs: 61%
HT-29 cells [4]; mouse, in vivo
  mean tumor volume: 286 mm^3
  median survival: 47 days
HT-29 cells [5]
  mean tumor volume: 408 mm^3
